Measured values published in patent US11020478B2, “Methods for modulating angiogenesis of cancers refractory to anti-VEGF treatment” (INIS BIOTECH LLC, priority 2013, dated 2021).

Tests used:
VEGFR2 = assay: Immunoblot of VEGFR2 phosphorylation in HUVEC; format: cell-based, human
Method: Cells were lysed and analyzed by the human […] RTK Signaling Antibody Array (Cell Signaling) following the manufacturer's directions. For co-immunoprecipitation, 500 μg lysates were incubated with 2 μg anti-VEGFR2 (55B11; Cell Signaling) Ab. The immunocomplexes were captured with protein G PLUS-Agarose (Santa Cruz) and processed for immunoblotting (according to methods described in Ilarregui et al., Nat. Immunol. 10, 981-99 (2009)). Blots were probed with anti-Erk1/2 (C14), anti-phospho-Erk1/2 (E4), anti-actin (I-19), anti-Gal3 (B2C10), anti-Gal4 (Q20), anti-Gal7 (H8) or anti-Gal8 (D18) Ab (all from Santa Cruz) or anti-Akt (9272), anti-phospho-Akt (9271 S), anti-VEGFR2 (55B11), anti-phospho-VEGFR2 (19A10) Ab (all from Cell Signaling) or a rabbit anti-Gal1 polyclonal IgG (1.5 μg/ml) (as described in Rubinstein et al., Cancer Cell 5:3, 241-51 (2004)).

Gal1 = molecular target: T1, Gal1 (Mus musculus, UniProt P16045); assay: ELISA of Gal1 secretion by tumors inoculated in syngeneic mice; format: in vivo; details: B16-F0, LLC1 and R1.1 tumors, day 16
T1 construct: from tissue; host or cells: B16-F0, LLC1 and R1.1 tumours grown in syngeneic mice
T1 sequence (P16045 whole entry): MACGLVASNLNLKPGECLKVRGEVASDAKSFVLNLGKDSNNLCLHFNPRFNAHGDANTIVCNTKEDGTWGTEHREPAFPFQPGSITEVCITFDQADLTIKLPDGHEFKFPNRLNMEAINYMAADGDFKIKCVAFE
Method: (§1) Gal1 was determined using an in-house ELISA (according to the methods described in Croci et al., J. Exp. Med. 209:11, 1985-2000 (2012). The mouse IFN-γ (DY485), mouse IL-17 (DY421), mouse TGF-β1 (DY1679), mouse Gal3 (DY1179) and human VEGF-A (DY293B) ELISA sets were from R&D. The mouse IL-10 (555252) set was from BD Biosciences, the mouse bFGF (Ab100670) set was from Abcam, and the mouse Gal8 (SEA308Mu) set was from USCN Life Science. Optical densities were determined at 450-550 nm in a Multiskan MS microplate reader (Thermo Electron Corporation).
(§2) Wild-type or Gal1 knockdown B16-F0, LLC1 and R1.1 (2.5 or 5×10^5 cells) were subcutaneously inoculated into 6- to 8-week old WT, Mgat5^−/−, St6gal1^−/− or Rag1^−/− B6 mice. CT26 (5×10^5) cells were injected into syngeneic BALB/c mice. When tumors reached 100 mm^3, mice were inoculated intraperitoneally with anti-VEGF (B20-4.1.1; 5 or 10 mg/kg), anti-Gal1 (F8.G7; 5, 10 or 15 mg/kg) or isotype control mAb twice weekly. Axitinib (30 mg/kg; Sigma) was administered every two days by oral gavage. Mice were sacrificed when tumors reached a volume greater than 2.5 cm^3. Two weeks after tumor inoculation, TDLN cells (5×10^5/well) were re-stimulated ex vivo for 72 hours with lysates of B16-F0 or LLC1 cells and analyzed for proliferation and cytokine production (as described in Rubinstein et al., Cancer Cell 5:3, 241-51 (2004)).

B16-F0 melanoma [1] = assay: In vivo tumor model, B16-F0; set-up: species or system mouse; details: single administration of F8.G7 mAb, 10 mg/kg
B16-F0 melanoma [2] = assay: In vivo tumor model, B16-F0; set-up: species or system mouse
Method: (§3) Mice were anesthetized and intracardiacally perfused with PBS and 4% (w/v) paraformaldehyde and tissues were embedded in OCT. To visualize the vasculature, mice were intravenously injected with FITC-conjugated Griffonia simplicifolia Lectin-1 (GLS-1B4; Vector) prior to heart perfusion and fixation. Pericyte maturation was assessed using Ab specific for α-SMA (1A4; Dako), desmin (D33; Dako), PDGFR-β (APB5; Biolegend) and RGS5 (HPA001821; Prestige Sigma). The fraction of pericyte coverage was calculated as the ratio of α-SMA area to the FITC-GLS-1B4 or CD31-stained area using a specific anti-CD31 Ab (Mec13.3; BD Biosciences). Hypoxia was detected after injection of pimonidazole hydrochloride for 30 min following immunostaining with Hypoxyprobe-1 plus kit (Natural Pharmacia). Tumor-infiltrating cells were analyzed using anti-CD8 (H35-17.2; e-Bioscience) and anti-F4/80 (BM8; eBioscience) mAb.
as §2

TDLN cells = assay: TDLN cell responses of tumor-bearing mice (ex vivo restimulation, ELISA, flow cytometry); format: in vivo, mouse
Method: as §1
(§4) For intracellular cytokine staining, TDLN cells were made permeable with Perm2 solution (BD Biosciences) and were labeled with fluorescent-conjugated mAb anti-IFN-γ (XMG1.2; BD Biosciences), anti-IL-17 (TC11-18H10; BD Biosciences), anti-IL-10 (JESS-16E3; eBioscience), anti-CD8 (H35-17.2; eBioscience) and anti-CD4 (GK1.5; BD Biosciences). Cells were analyzed on a FACSCanto II flow cytometer (BD Biosciences). For adoptive transfer, splenic T cells (5×10^6) from tumor-bearing mice were labeled with CFSE (Molecular Probes) and injected through the tail vein into tumor-bearing recipient mice treated with F8.G7 mAb or isotype control. APC-fluorescent beads (7-10 μm; BD Biosciences) were injected as controls. CFSE^+ cells or APC^+ beads were analyzed after 24 h or 15 min respectively by flow cytometry in the tumor parenchyma and spleen.
as §3
Wild-type or Gal1 knockdown B16-F0, LLC1 and R1.1 (2.5 or 5×10^5 cells) were subcutaneously inoculated into 6- to 8-week old WT, Mgat5^−/−, St6gal1^−/− or Rag1^−/− B6 mice. CT26 (5×10^5) cells were injected into syngeneic BALB/c mice. […] Two weeks after tumor inoculation, TDLN cells (5×10^5/well) were re-stimulated ex vivo for 72 hours with lysates of B16-F0 or LLC1 cells and analyzed for proliferation and cytokine production (as described in Rubinstein et al., Cancer Cell 5:3, 241-51 (2004)).

R1.1 T-cell lymphoma = assay: In vivo tumor model, R1.1; set-up: species or system mouse
Method: Cells were incubated at 37° C. for periods ranging from 0 to 24 h and were visualized by phase-contrast microscopy. Capillary-like tubular structures were scored by counting the number of tubules (closed areas) per well in a phase-contrast microscope (Nikon E-100). For migration assays, ECs (4×10^4/well) transfected or not with specific siRNA were resuspended in M199 medium supplemented with 1% FCS. Cells were placed into the top chamber of the insert while the bottom well was filled with Gal1 or VEGF-A in the absence or presence of the above mentioned stimuli. After 24 hours, inserts were stained with crystal violet (Sigma) and analyzed in an inverted microscope. For each filter, 4 images were obtained and cells were counted with ImageJ software v1.46r (NIH). […] After 24 hours, cells were incubated in the presence of 0.8 μCi [^3H]-thymidine (NEN Dupont). Cells were then harvested and radioactivity was measured in a 1414 Liquid Scintillation Counter (Perkin Elmer). Tumor-associated ECs were identified by flow cytometry using Alexa Fluor 647-conjugated anti-CD34 (RAM34; eBioscience) and FITC-conjugated anti-CD45 (J33; Immunotech). Microvessel density (MVD) was determined by counting the number of CD31^+ microvessels present in 10 mm^2. Ten random 400× fields were counted. […]

HUVEC migration = assay: EC migration assay (HUVEC); format: cell-based, human
Method: (§5) Cells were incubated at 37° C. for periods ranging from 0 to 24 h and were visualized by phase-contrast microscopy. Capillary-like tubular structures were scored by counting the number of tubules (closed areas) per well in a phase-contrast microscope (Nikon E-100). For migration assays, ECs (4×10^4/well) transfected or not with specific siRNA were resuspended in M199 medium supplemented with 1% FCS. Cells were placed into the top chamber of the insert while the bottom well was filled with Gal1 or VEGF-A in the absence or presence of the above mentioned stimuli. After 24 hours, inserts were stained with crystal violet (Sigma) and analyzed in an inverted microscope. For each filter, 4 images were obtained and cells were counted with ImageJ software v1.46r (NIH). […] After 24 hours, cells were incubated in the presence of 0.8 μCi [^3H]-thymidine (NEN Dupont). Cells were then harvested and radioactivity was measured in a 1414 Liquid Scintillation Counter (Perkin Elmer). Tumor-associated ECs were identified by flow cytometry using Alexa Fluor 647-conjugated anti-CD34 (RAM34; eBioscience) and FITC-conjugated anti-CD45 (J33; Immunotech). Microvessel density (MVD) was determined by counting the number of CD31^+ microvessels present in 10 mm^2. Ten random 400× fields were counted.

[3] = system: LLC1 Lewis lung carcinoma; assay: In vivo tumor model, LLC1; set-up: species or system mouse
Method: Cells were incubated at 37° C. for periods ranging from 0 to 24 h and were visualized by phase-contrast microscopy. Capillary-like tubular structures were scored by counting the number of tubules (closed areas) per well in a phase-contrast microscope (Nikon E-100). For migration assays, ECs (4×10^4/well) transfected or not with specific siRNA were resuspended in M199 medium supplemented with 1% FCS. Cells were placed into the top chamber of the insert while the bottom well was filled with Gal1 or VEGF-A in the absence or presence of the above mentioned stimuli. After 24 hours, inserts were stained with crystal violet (Sigma) and analyzed in an inverted microscope. For each filter, 4 images were obtained and cells were counted with ImageJ software v1.46r (NIH). […] After 24 hours, cells were incubated in the presence of 0.8 μCi [^3H]-thymidine (NEN Dupont). Cells were then harvested and radioactivity was measured in a 1414 Liquid Scintillation Counter (Perkin Elmer). […] Microvessel density (MVD) was determined by counting the number of CD31^+ microvessels present in 10 mm^2. Ten random 400× fields were counted.
Mice were anesthetized and intracardiacally perfused with PBS and 4% (w/v) paraformaldehyde and tissues were embedded in OCT. […] Pericyte maturation was assessed using Ab specific for α-SMA (1A4; Dako), desmin (D33; Dako), PDGFR-β (APB5; Biolegend) and RGS5 (HPA001821; Prestige Sigma). […]

HUVEC tube formation = assay: Capillary-like tube formation on Matrigel (HUVEC); format: cell-based, human; details: HUVEC
Method: as §5

[4] = system: other members of the galectin family; details: cited from earlier work
B16-F0 tumor parenchyma = assay: Adoptive transfer of CFSE-labeled T cells / fluorescent beads, influx to tumor and spleen; format: in vivo, mouse
Method: as §4

[5] = F8.G7 10 mg/kg combined with anti-VEGF mAb, day 7
[6] = single administration of F8.G7 mAb, 10 mg/kg

B1: F8.G7: mouse anti-Gal1 blocking (neutralizing) monoclonal antibody; hybridoma 8F4.F8.G7, ATCC deposit PTA-10535; vH SEQ ID NO: 6, vK SEQ ID NO: 11 (antibody, V domains shown)
VH: EVQLQQSVAEFVRPGASVRLSCTASGFNIKNTYIHWVRQRPEQGLEWIGKIDPANGNTKYVPEFQGKATMTADTSSNTVYLHLSSLTSEDTAIYYCVDGYYGWYFAVWGTGTTVTVSS
VL: QAVVTQESALTTSPGETVTLTCRSSTGAVTTSNYANWVQEKPDHLFTGLIGATNNRAPGVPARFSGSLIGDKAVLTITGAQTEDEAIYFCALWYRNHFIFGSGTKVTVL
modifications: Anti-human
Which “Gal1-induced VEGFR2 phosphorylation” value (VEGFR2) does the source give for B1 here?
Its value is “inhibited to levels comparable to those attained by MGAT5 silencing”.

What about the “amounts of secreted Gal1” value (Gal1) of the same molecule?
The value was “dropped substantially”.

What about the “tumor growth and vascularization” value (B16-F0 melanoma [1]) of the same molecule?
The value was “sustained inhibition of tumor growth and vascularization”.

What about the “therapeutic benefit of anti-VEGF” value (B16-F0 melanoma [2]; F8.G7 10 mg/kg combined with anti-VEGF mAb) of the same molecule?
Its value is “slightly enhanced”.

And the “remodeling of tumor vasculature” value (B16-F0 melanoma [2]; days 4-5 post treatment)?
The value was “substantial remodeling of the vasculature”.

And the “pericyte coverage of tumor vessels” value (B16-F0 melanoma [2]; days 4-5 post treatment, vs control mAb)?
Its value is “greater coverage by pericytes”.

What about the anti-tumor effect (B16-F0 melanoma [2]; immunodeficient B6.Rag1−/− mice) of the same molecule?
The anti-tumor effect was “only a partial anti-tumor effect”.

And the “concentrations at which active” value (B16-F0 melanoma [2]; in vivo tumor models)?
Its value is 5 to 10 mg/kg.

What about the “tumor hypoxia (pimonidazole adducts)” value (B16-F0 melanoma [2]; mouse, in vivo) of the same molecule?
Its value is “markedly alleviated”.

And the “tumor growth at different doses” value (B16-F0 melanoma [2]; treated when tumors reached 100 mm^3)?
Its value is “dose-dependent effect”.

What about the “Desmin expression in pericytes” value (B16-F0 melanoma [2]; vs control-treated tumors) of the same molecule?
The value was “no significant variations”.

What about the “PDGFR-β expression in pericytes” value (B16-F0 melanoma [2]; vs control-treated tumors) of the same molecule?
Its value is “lower expression”.

And the “RGS5 expression in pericytes” value (B16-F0 melanoma [2]; vs control-treated tumors)?
The value was “lower expression”.

And the “α-SMA expression in pericytes” value (B16-F0 melanoma [2]; vs control-treated tumors)?
The value was “higher expression”.

What about the T-cell proliferation (TDLN cells; mice bearing B16-F0 tumors) of the same molecule?
The T-cell proliferation was “stimulated”.

What about the “tumor-specific IL-10 production” value (TDLN cells; mice bearing B16-F0 tumors) of the same molecule?
The value was “blunted”.

What about the immunological phenotype (TDLN cells; mice inoculated with LLC1) of the same molecule?
Its immunological phenotype is “confirmed”.

And the “number of TDLN and tumor-infiltrating IFN-γ-producing CD8+ T cells” value (TDLN cells; vs control-treated mice)?
Its value is “dramatic increase”.

And the “anti-VEGF resistance (tumor growth inhibition and reduced vascularization)” value (R1.1 T-cell lymphoma; [5])?
Its value is “successfully circumvented”.

And the “tumor growth and vascularization” value (R1.1 T-cell lymphoma; [6])?
The value was “sustained inhibition of tumor growth and vascularization”.

What about the “EC migration induced by Gal1” value (HUVEC migration) of the same molecule?
Its value is “specifically prevented”.

What about the “anti-VEGF resistance (tumor growth inhibition and reduced vascularization)” value [3, 5] of the same molecule?
The value was “successfully circumvented”.

And the “tumor growth and vascularization” value [3, 6]?
Its value is “sustained inhibition of tumor growth and vascularization”.

What about the “tube formation induced by Gal1” value (HUVEC tube formation) of the same molecule?
Its value is “specifically prevented”.

What about the “binding to other members of the galectin family” value [4] of the same molecule?
Its value is “did not bind”.

And the “T cells reaching tumor parenchyma” value (B16-F0 tumor parenchyma; CFSE-labeled T cells, vs control isotype)?
The value was “greater number”.

What about the “number of CFSE+ T cells in spleens” value (B16-F0 tumor parenchyma; vs control isotype) of the same molecule?
Its value is “no differences”.

What about the “access of fluorescently-labeled beads to the tumor parenchyma” value (B16-F0 tumor parenchyma; vs control-treated mice) of the same molecule?
Its value is “increased access”.
